For assay [1], the target named is Bovine spleen trypsin (Sigma) (bovine) (UniProt P00760).
In assay [2] the target is Polymorphonuclear leukocyte elastase from human sputum (EPC Co.; Funakoshi Yakuhin) (human) (UniProt P08246).
The target of assay [3] is Bovine spleen trypsin (Sigma) (bovine) (UniProt P00760). This is another data set of the same source.
Assay [4] has as its target Polymorphonuclear leukocyte elastase from human sputum (EPC Co.; Funakoshi Yakuhin) (human) (UniProt P08246). This is another data set of the same source.
The target in assay [5] is Bovine spleen trypsin (Sigma) (bovine) (UniProt P00760). This is another data set of the same source.
The target of assay [6] is Polymorphonuclear leukocyte elastase from human sputum (EPC Co.; Funakoshi Yakuhin) (human) (UniProt P08246). This is another data set of the same source.
Assay [7] concerns the target Calf pancreatic trypsin (Sigma) (calf (bovine)) (UniProt P00760).
In assay [8] the target is Polymorphonuclear leukocyte elastase from human sputum (EPC Co.; Funakoshi Yakuhin) (human) (UniProt P08246). This is another data set of the same source.
The target of assay [9] is Calf pancreatic chymotrypsin (Sigma) (calf (bovine)) (UniProt P00766).
Assay [10] addresses Human plasma kallikrein (human) (UniProt P03952).
Assay [11] concerns the target Human plasma plasmin (human) (UniProt P00747).
Assay [12] concerns the target Human plasma thrombin (human) (UniProt P00734).
In assay [13] the target is Porcine pancreatic elastase (Sigma) (porcine) (UniProt P00772).
Chain of Porcine pancreatic elastase (Sigma) (porcine) (P00772 27-266): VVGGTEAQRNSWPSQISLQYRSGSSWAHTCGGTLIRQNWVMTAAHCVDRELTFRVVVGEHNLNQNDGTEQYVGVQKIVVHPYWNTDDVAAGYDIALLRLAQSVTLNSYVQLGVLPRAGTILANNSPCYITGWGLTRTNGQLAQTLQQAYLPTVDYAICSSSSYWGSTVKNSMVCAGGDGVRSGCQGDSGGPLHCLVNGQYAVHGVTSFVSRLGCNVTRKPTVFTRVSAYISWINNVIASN

Where two headings read alike, the source gives them in different places.

Chain of α1 -AT (Sigma) (P01009 25-418 limits assumed): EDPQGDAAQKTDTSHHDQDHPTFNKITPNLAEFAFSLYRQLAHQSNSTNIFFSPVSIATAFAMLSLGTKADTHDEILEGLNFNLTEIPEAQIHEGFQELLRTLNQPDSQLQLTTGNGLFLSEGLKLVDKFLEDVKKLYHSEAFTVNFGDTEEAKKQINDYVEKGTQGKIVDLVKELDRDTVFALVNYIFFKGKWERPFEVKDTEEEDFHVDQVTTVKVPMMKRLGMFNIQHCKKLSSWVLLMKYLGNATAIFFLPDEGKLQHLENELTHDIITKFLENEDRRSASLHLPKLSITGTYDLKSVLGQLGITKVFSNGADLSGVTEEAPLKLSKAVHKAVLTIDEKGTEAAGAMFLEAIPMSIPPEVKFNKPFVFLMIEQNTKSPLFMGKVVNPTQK
Chain of Bovine spleen trypsin (Sigma) (bovine) (P00760 24-246): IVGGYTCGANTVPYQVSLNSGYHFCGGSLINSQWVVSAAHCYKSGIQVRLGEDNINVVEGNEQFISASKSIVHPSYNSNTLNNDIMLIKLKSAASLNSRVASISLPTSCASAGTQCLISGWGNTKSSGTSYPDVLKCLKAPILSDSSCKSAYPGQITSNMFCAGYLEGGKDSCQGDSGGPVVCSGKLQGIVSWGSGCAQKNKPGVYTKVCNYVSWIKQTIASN
Chain of Human secretory leukoprotease inhibitor (SLPI) (chain): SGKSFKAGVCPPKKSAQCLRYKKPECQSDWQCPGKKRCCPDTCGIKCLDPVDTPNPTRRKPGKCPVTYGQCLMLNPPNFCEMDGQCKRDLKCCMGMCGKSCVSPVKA
Chain of (Arg^59 -Ala^107) SLPI (chain): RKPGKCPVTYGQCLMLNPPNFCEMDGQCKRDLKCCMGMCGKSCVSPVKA
Chain of Calf pancreatic trypsin (Sigma) (calf (bovine)) (P00760 24-246): as the sequence (P00760 24-246) above
Chain of (Asn^55 -Ala^107) SLPI fragment polypeptide (chain): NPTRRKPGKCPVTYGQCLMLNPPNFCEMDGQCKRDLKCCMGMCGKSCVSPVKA
Chain of (Arg^58 -Ala^107) SLPI (chain): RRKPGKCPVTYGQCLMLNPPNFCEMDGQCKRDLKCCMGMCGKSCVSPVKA
Chain of Human plasma plasmin (human) (P00747 97-810 limits assumed): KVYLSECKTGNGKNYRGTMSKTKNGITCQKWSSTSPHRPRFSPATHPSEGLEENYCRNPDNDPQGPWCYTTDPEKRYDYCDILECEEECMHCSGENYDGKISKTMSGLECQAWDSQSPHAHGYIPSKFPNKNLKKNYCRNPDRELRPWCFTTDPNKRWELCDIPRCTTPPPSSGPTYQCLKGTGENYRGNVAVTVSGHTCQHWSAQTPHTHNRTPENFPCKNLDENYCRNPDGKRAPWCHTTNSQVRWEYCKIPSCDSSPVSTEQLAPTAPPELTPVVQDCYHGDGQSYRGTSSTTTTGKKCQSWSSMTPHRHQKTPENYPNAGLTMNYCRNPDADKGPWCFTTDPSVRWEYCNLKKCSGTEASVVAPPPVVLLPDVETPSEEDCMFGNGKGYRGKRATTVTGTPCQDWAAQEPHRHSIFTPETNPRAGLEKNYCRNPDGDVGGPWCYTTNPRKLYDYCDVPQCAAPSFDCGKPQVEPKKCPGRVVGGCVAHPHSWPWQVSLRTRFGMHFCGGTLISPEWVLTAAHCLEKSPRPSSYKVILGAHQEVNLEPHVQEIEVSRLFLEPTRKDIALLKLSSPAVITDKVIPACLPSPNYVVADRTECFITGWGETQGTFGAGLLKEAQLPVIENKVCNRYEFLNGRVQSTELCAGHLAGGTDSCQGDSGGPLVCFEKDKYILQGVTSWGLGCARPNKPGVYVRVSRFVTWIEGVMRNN

In the case of (Arg^58 -Ala^107) SLPI, the IC50 (commonly the concentration at which inhibition is half-maximal) was 2000 nM in assay [1] and 12 nM in assay [2].

Regarding (Arg^59 -Ala^107) SLPI, the IC50 Value in [3] amounted to 2500 nM; in [4] it was 14 nM. Moreover, the IC50 in [5] worked out at 2000 nM; in assay [6], 12 nM.

“(Asn^55 -Ala^107) SLPI fragment polypeptide”: the results for the concentration of inhibitory protein which exhibits a 50% inhibition in assay [7] and in assay [8] were 130 nM and 1 nM, respectively.

For the substance “Human secretory leukoprotease inhibitor (SLPI)”, the IC50 Value in assay [3] was found to be 240 nM; in [4], 16 nM. Also, the values for the IC50 in assay [5] and in assay [6] were 330 nM and 13 nM, respectively.

Turning to α1 -AT (Sigma) (from UniProt P01009), the concentration of inhibitory protein which exhibits a 50% inhibition in assay [9] was 2 µM; in [7], 200 nM; in [10] it was over 2 µM; in [11] it was over 2 µM; in assay [12], over 2 µM; in assay [13], 300 nM.

The values above are taken from patent publication US5851983.
